In patent publication US8748112B2, “Methods of determining cancer cell responsiveness to a notch inhibitory agent” (Trojan Technologies, Ltd., priority 2007, dated 2014):

What was measured:
MDA-MB231 cells = experiment: Cellular localization by immunostaining (nuclear transduction); type: cell-based, human; conditions: 50 μM, two hours, serum free media, anti-His immunostaining
Method: To determine the cellular localization of the ANTP/DN-MAML (TR4) fusion protein, immunostaining on human mammary epithelial breast cancer MDA-MB231 cells was carried out. MDA-MB231 cells were cultured to sub-confluence in Dulbecco's modified Eagle's medium containing 10% calf serum at 37° C. The coverslips with cells attached were washed, and incubated with ANTP/DN-MAML purified fusion protein in serum free media for two hours at a concentration of 50 μM. Cells were washed three times and fixed with 4% paraformaldehyde for 15 minutes. After brief washes, the coverslips were incubated with blocking solution and subsequently with anti-His primary and FITC-conjugated secondary antibody.

[1] = In vivo maximum tolerated dose study; design: species or system mice
Method: ANTP/DN-MAML tail vein administration was started when the mice reached an age of 12 weeks. Mice were continuously monitored for signs of hypoglycemic shock or drug side effects and were sacrificed if body weight loss exceeded 15%. Various dosages were tested starting at 4 mg/kg/day. […] This experiment was terminated by sacrificing the animals three days after injection.

[2] = Immunogenicity in immuno-competent mice by ELISA; type: in vivo; conditions: intravenous 0.2 ml, 2.5 mg/ml without adjuvant, once per day for 5 days; 2.5 mg per week; monitored over 4 months
Method: The immunogenicity of ANTP/DN-MAML was investigated in immuno-competent mice. Animals were immunized intravenously with ANTP/DN-MAML (0.2 ml, 2.5 mg/ml) without adjuvant, once per day for 5 days. Mice were bled once per week over a 4-month period, and the immune response monitored by ELISA. Blood samples were diluted 1:10, 1:100 and 1:1000 in PBS, and the immune response was monitored by ELISA on native ANTP/DN-MAML (coated at 50 μg/ml) and detected using anti-mouse antibodies. […] This dose is equivalent to 100 mg/kg in humans.

Notch (NICD) = experiment: Notch inhibition, Western blot of activated Notch (NICD); type: cell-based, human; conditions: MDA-MB231 cells treated for two hours
Method: To investigate the potential role of ANTP/DN-MAML to inhibit Notch signaling activation the high metastatic mammary epithelial cell line MDA-MB231 cell line was treated with the ANTP/DN-MAML fusion protein for two hours. Total protein was extracted from cells using SDS buffer. Total protein concentrations were determined using the BCA protein assay kit. Total protein ([…]) was diluted in 5× sample buffer ([…] Tris-HCl pH 6.8, 500 mM dithiotheitol, 10% SDS, 0.5% bromophenol blue, 50% glycerol), heated at 100° C. and analyzed by SDS-PAGE. Electrophoresis was carried out in running buffer (25 mM Tris HCl, 250 mM glycine, 0.1% SDS) for 60 minutes or until the bromophenol blue had run out of the gel. Separated proteins were transferred to nitrocellulose membrane in ice cold transfer buffer (39 mM glycine, 48 mM Tris HCl) electrophoretically for 90 minutes at 100V. Western blots were probed with the […] in blocking buffer at 4° C. over night with anti-Mouse IgG peroxidase produced in goat […] (Sigma A9917). Nitrocellulose membranes were washed 4 times for five minutes each in TBS-T buffer. […]

Colo205 tumors = experiment: Colon cancer xenograft model; type: in vivo, female nude mice; conditions: 0.2 ml of 4 mg/ml every other day, Colo205 xenografts
Method: High levels of Notch are expressed in colon cancer cells. ANTP/DN-MAML was administered to female nude mice bearing xenografted Colo205 tumors. Injections of 0.2 ml of 4 mg/ml ANTP/DN-MAML protein were administered to the mice every other day. This dose is equivalent to 2 g of ANTP/DN-MAML fusion protein per patient.

[3] = Biodistribution by Western blot of organs after intravenous injection; type: in vivo, CD1 nude mice; conditions: 4 mg/kg intravenously via tail vein, 2 hours after injection
Method: To determine whether Antennapedia could be used to deliver the DN-MAML in vivo, CD1 nude mice were injected intravenously via tail vein with 4 mg/kg of the ANTP/DN-MAML fusion protein. The mice were perfused for 5 min with phosphate-buffered saline and sacrificed 2 hours following the injection. The expression of ANTP/DN-MAML in each organ was determined by Western blot analysis. […] As such, the targeted delivery system of the present invention may have wide applications in the administration of therapeutic proteins to the central nervous system.

[4] = system: MDA MB231 xenograft tumor; experiment: Penetration into outer, middle and inner core of xenografted mammary tumors (Western blot, immunohistochemistry); type: in vivo, CD1 Nude mice; conditions: tail vein injection
Method: Purified ANTP/DN-MAML fusion protein was injected into CD1 Nude mice xenografted with MDA MB231 human mammary epithelial breast cancer cells via the tail vein. The mice were perfused for 5 min with phosphate-buffered saline and sacrificed 2 hours following the injection. The tumor was removed and dissected under a stereoscope to separate the outer, middle, and inner core of the tumor. The ANTP/DN-MAML in each core of the tumor was determined by Western blot.
In order to establish the localization of ANTP/DN-MAML within the tumors, immunohistochemistry on the above mammary cancer samples was performed.

Breast cancer xenografts = experiment: In vivo tumor reduction in breast cancer xenografts; design: species or system mice; conditions: 4 mg/kg every two days, n=6 per group, vs PBS control
Method: Breast cancer xenografts were established in mice. The mice were divided into two groups, and injected every two days with either PBS as a control, or with 4 mg/kg ANTP/DN-MAML fusion protein (n=6 per group) (FIG. 4A). Control mice treated with PBS developed rapidly growing tumors. The control mice were euthanized after twenty days. […] (FIG. 4B).

Substance | cellular localization (MDA-MB231 cells) | side effects at the maximum tolerated dose ([1]; 57 mg/kg/day, tail vein) | maximum tolerated dose ([1]; tail vein administration, mice aged 12 weeks) [mg/kg/day] | immune response (ELISA) [2] | downregulation of Notch activation (NICD) (Notch (NICD)) | colon cancer cell growth in vivo (Colo205 tumors) | detection in brain (blood-brain barrier crossing) [3] | signal in liver, kidney, heart, lung, spleen and brain tissue vs PBS injected mice ([3]; Western blot) | detection in outer, middle and inner core of the tumor ([4]; 2 hours, Western blot, vs PBS control) | localization within the tumors (immunohistochemistry) ([4]; MDA MB231 xenograft) | tumor volume (Breast cancer xenografts)
ANTP/DN-MAML: 14.18 KDa fusion protein of antennapedia homeodomain, 62 amino acid DN/MAML sequence and pentahistidine tag (SEQ ID NO.:2) | nuclear localization | loss of appetite, weight loss and hypoglycemia | 57 | does not raise an immune response | Downregulation of Notch activation occurred | reduced colon cancer cell growth in vivo | detected in the brains | significant signal | detected in the outer, middle and inner core of the tumor | Intense ANTP/DN-MAML staining within the nucleus of mammary cancer cells | no increase in tumor volume after thirty-two days
ANTP: Trojan peptide; 60 amino acid Drosophila antennapedia homeodomain (SEQ ID NO.:4), used alone as control [reference compound] | – | – | – | – | not in cells treated with ANTP alone | – | – | – | – | – | –
